Results from the domain aggregation screens of Martell et al. (2025).

Experiment: soluble fraction after stress (log2 fold change); higher = more stays soluble; pooled small domains, quantitative proteomics
Details: stress: 75 degC
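Further: 20 min heating vs room temperature control held 20 min.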

In order of rising “soluble fraction (log2)” value:
1. HMDTDVFLMDLRGESRDYAEEVLINNNLEVKVIILPFSKRHYPGKVVEMRPSPFTKVKKGRIITLSVAGN  -3.73
2. HMDTETLIDKYQLNASEAAVLRFMDKNRDSLRDLGIRDVARASYVSTATIVNMAKKIGYSGYSELVFAYGS  -3.69
3. HMDRSQRDQEQAQLIRLVQQAFDDSGQRYGAEKIRITLAEGGIRVSTKRIAAIMQELDLRSI  -2.41
4. HMDSGINVWASAEGLTITADKDTTVYVYDIYGRTIHTSEVKAGTSDIAINTKGIVIVKANGYTKKII  -1.77
5. HMDSLIEYENERSLRRLINENLSDYERTVWWLYYAGADAAHIAEQTGRSKRSAENAITRVRRKLRALITQS  -1.33
6. HMDRLTISTLGNGLFRVNGAEAEATVYNLSGNVVKVVPADEVIDLSSLAKGVYIIHVDGEAFKVI  -1.13
7. HMDSKYLRIFSTLIDEMEKMSPGEQLQSERELSQRFQVSPMTVRRALHKLSTEGYTSAIPGKGTFVRK  -0.707
8. HMDSTTHALALVRTLPRDQAEAVLLRVVADLDYADVAEIMGRSPGAVRVLVHRGLRRLEQELATRRT  -0.574
9. HMDSINGEASISRELHGTRFDQAAAILFPEFSRSRLQAWIGAGALTLDGQTARAKDKVTQGQHLVLAAAVE  -0.54
10. HMDRSLYVGDAVGFDSARGLMEIEVKNKFSVVAVSLKKKPSGNFITPLLRMEKKKGEAVTVAPGSGHR  -0.514
11. HMDRVDGWLHDGKLYLRVVDYKTGKKSFDLAELRYGLGLQMLLYLFTLKEEGQMLFGGHEIVPAGVL  -0.514
12. HMDRMFQPETWSKIYQWVMNDPQVPDKEDVLALIRRHFGNFEKLIKLLHYLDGGKPYAYLSEH  -0.473
13. HMDSTLTNEIYNELYRAITHQELKPGQNLTLTMLKKQFNVSHTPIREALTRLSADGLVTYHPNKGMKVT  -0.444
14. HMDRVSEITLTRLRDYAADGQVRTATLTHRTNVVTGTLRDGRRFSAGVPPMYGDELTTFLLDNGVRVDSDN  -0.41
15. HMDSLELADEVGRVSEALQELRPHQREVLELSLVHGRSHQQISEKTGLALGTVKSHARRGLMRVREMLGV  -0.381
16. HMDSDMGQQLKTLLTVGTFMSSKELKAIAQQLGLKKPTDLKEWVELESGTQRIEGKPTKGYWIKMNDINN  -0.367
17. HMDTHDVQVPQEGQGLRLDLFLTDHIEGSRSFIQTIIKDGHVILNGKKAKANSRLNEGDYVVWSIPKPE  -0.288
18. HMDSTDSIIHYVRAHRSLEVKNLSFAEARFKKVVELEPNFARGWLGLGEVSILKNNFENASIYLDKALE  -0.282
19. HMDTFYKNLSKKIKTIREKLSFSQEALAKELGISRVAISQIENGDRKISAEEIAKLSRVFNVPTDILLN  -0.281
20. HMDSVEYRVITGDDVNFRKGPSTDYASLGKLNKGYKVEYISETNSWSKVKYNGQTGYVYSKYVAQT  -0.155
21. HMDSILSIVGGEESYKALLAWAENNISQQELQQLETILKSGNVPAIKRVLVTLMNRFNQAQS  -0.114
22. HMDTDWDVSGVTPDQYRLLFSVLGGLAGVKDVGLNPDGLRIIHTPEALPSIEKAFQANGLKLKRNVD  -0.0943
23. HMDTHRLNYSDFVAEVQAQRVSKVVIDGYTIVGQRTNGETFETVRPALQDPKLVDDLLQNNVIIEGKQPE  -0.0116
24. HMDSRVRHAVLTTLLGKRIVDDLVEKGELPGTPLVLATAPGLDRDLEQLIAQRVVTALLTTV  -0.0018
25. HMDTFSVAIGTKTPDGSSVGEVKTISRDELLLLEDEVAEDPTKEIIFTGGTKDSAQAALDGWIDYNTNLAS  0.0395
26. HMDSSALEPIVDQIIADNPKQVEQFQAGKTKVLGFFVGQVMKQTDGTANPKQVNELVAARLKSA  0.0418
27. HMDSVTVPDISGYSPKAAEDSINNAGLKINEQGLSGSGDGQVVERTSPSAGSKVKKGDSVTVYYSKA  0.0423
28. HMDSINIDEETAKLGPNAPQIIDGIKKWGQGLVAKGVWSDEDFDEFKVFAATSSGINALNKIRKYY  0.188
29. HMDRSRAEIDLGHVETAIRTLAEGGMVQEYAIGGRSLKRYKMGELLQLKAELENEINMERRKEKMRQ  0.212
30. HMDSNISVSEALEMVDKGSVKEIIVEGEKLYITNQDGKQYTSSKEVGVSLIELMKDSGIDPIKSDVNIIVK  0.463
